Here are results for three proteins from PMC10289004.

The nature of data set [1]: RIPK1 protein level, HT-29 or HEK293. The following applies: glycan lost; control: untreated / control knockdown.
A short description of data set [2]: western blot, erythrocytes of LPS-injected mice. The following applies: glycan gained; control: LPS + PBS. Background: In western blotting, separated proteins are transferred to a membrane and probed.
Data set [3] in a line: RIPK1 protein level, MEFs. The note with it: glycan lost; control: untreated.
Data set [4] is described as follows: western blot, MEFs, 4h TSZ. The note with it: glycan lost; control: TSZ alone.

B1: RIPK1 (hRIPK1): OGT knockdown (protein)
parent chain: MQPDMSLNVIKMKSSDFLESAELDSGGFGKVSLCFHRTQGLMIMKTVYKGPNCIEHNEALLEEAKMMNRLRHSRVVKLLGVIIEEGKYSLVMEYMEKGNLMHVLKAEMSTPLSVKGRIILEIIEGMCYLHGKGVIHKDLKPENILVDNDFHIKIADLGLASFKMWSKLNNEEHNELREVDGTAKKNGGTLYYMAPEHLNDVNAKPTEKSDVYSFAVVLWAIFANKEPYENAICEQQLIMCIKSGNRPDVDDITEYCPREIISLMKLCWEANPEARPTFPGIEEKFRPFYLSQLEESVEEDVKSLKKEYSNENAVVKRMQSLQLDCVAVPSSRSNSATEQPGSLHSSQGLGMGPVEESWFAPSLEHPQEENEPSLQSKLQDEANYHLYGSRMDRQTKQQPRQNVAYNREEERRRRVSHDPFAQQRPYENFQNTEGKGTAYSSAASHGNAVHQPSGLTSQPQVLYQNNGLYSSHGFGTRPLDPGTAGPRVWYRPIPSHMPSLHNIPVPETNYLGNTPTMPFSSLPPTDESIKYTIYNSTGIQIGAYNYMEIGGTSSSLLDSTNTNFKEEPAAKYQAIFDNTTSLTDKHLDPIRENLGKHWKNCARKLGFTQSQIDEIDHDYERDGLKEKVYQMLQKWVMREGIKGATVGKLAQALHQCSRIDLLSSLIYVSQN
For the protein B1, the expression_or_secretion entry in data set [1] was “no change”.

B2: RIPK1 (mouse): TMG (protein)
parent chain: MQPDMSLDNIKMASSDLLEKTDLDSGGFGKVSLCYHRSHGFVILKKVYTGPNRAEYNEVLLEEGKMMHRLRHSRVVKLLGIIIEEGNYSLVMEYMEKGNLMHVLKTQIDVPLSLKGRIIVEAIEGMCYLHDKGVIHKDLKPENILVDRDFHIKIADLGVASFKTWSKLTKEKDNKQKEVSSTTKKNNGGTLYYMAPEHLNDINAKPTEKSDVYSFGIVLWAIFAKKEPYENVICTEQFVICIKSGNRPNVEEILEYCPREIISLMERCWQAIPEDRPTFLGIEEEFRPFYLSHFEEYVEEDVASLKKEYPDQSPVLQRMFSLQHDCVPLPPSRSNSEQPGSLHSSQGLQMGPVEESWFSSSPEYPQDENDRSVQAKLQEEASYHAFGIFAEKQTKPQPRQNEAYNREEERKRRVSHDPFAQQRARENIKSAGARGHSDPSTTSRGIAVQQLSWPATQTVWNNGLYNQHGFGTTGTGVWYPPNLSQMYSTYKTPVPETNIPGSTPTMPYFSGPVADDLIKYTIFNSSGIQIGNHNYMDVGLNSQPPNNTCKEESTSRHQAIFDNTTSLTDEHLNPIRENLGRQWKNCARKLGFTESQIDEIDHDYERDGLKEKVYQMLQKWLMREGTKGATVGKLAQALHQCCRIDLLNHLIRASQS
As to B2, the “other: RIPK1 Ser166 phosphorylation” value in data set [2] is on record as “decreases”.

B3: RIPK1 (mouse): OSMI-4 (protein)
parent chain: B2 parent chain
As to B3, the expression_or_secretion entry in data set [3] is “no change”. Also, the “other: RIPK1 Ser166 phosphorylation” value in data set [4] is reported as “increases”.
